In paper PMC4159212:

Substrate: COC1=C(OC)C(=O)C(CC=C(C)C)=C(C)C1=O
Test: PRODH steady-state kinetics
Format: biochemical, Rhodobacter capsulatus
Details: 200 mM proline fixed, 23 °C, 20 mM Tris pH 8.0, 10% glycerol

B1: RcPutA (Rhodobacter capsulatus SB 1003) (protein)
chain: MTDLSALGPKAKFAPEAEVLQALVAQAALPQPQLDRIAARGADLVARIRAEAKPSLMEHFLAQYGLSTREGVALMCLAEAMLRVPDTATIDALIEDKIAPSDWGKHLGTAASSLVNASTWALMLTGKVLDDGAGGIAGTLRGAMRRLGEPVIRAAVGQAMREMGRQFVLGETIEKALERAEKREAEGYTFSYDMLGEAALTAADAERYRLAYAQAITAIGKAATRGSIAANPGISIKLSALHPRYEVAQEARVMAELVPVVRDLARAAARAGIALHIDAEEQDRLALSLRVMAAVIADPETAGWEGFGAVVQAYGKRAGAAIDALAAMARAAGRRINIRLVKGAYWDAEMKRAQVEGHPGFPLFTSKTGTDVAYICLAAKLFGLNDCIYPQFATHNAHTVAAVLEMAAGRPFEFQRLHGMGARLHDIVLRETGGRCRIYAPVGAHRDLLAYLVRRLLENGANSSFVNQIVNESVPPAEVAACPFAALPTARAPRGLLAPADLFGAGRVNAQGFDLSDPEVLARIEAARDVTLPDAAPIVAGPVSGTLRPVRNPATGAVVAQVTEADAATVALALDAAQVWSAPAATRAAVLCRAADLYEENFGPIFAALAQEAGKTLGDAVSELREAVDFLRYYAAEGAADTRPPRGAVVAISPWNFPLAIFTGQVAAALMAGNAVLAKPAEQTPIIAALAVRLLHQAGVPETALQLLPGDGPTVGAALTRDPRVAGVVFTGSTETAQIIARAMAAHLAPGTPLIAETGGLNAMVVDSTALPEQAVRDVVASAFRSAGQRCSALRCLYVQDDIAPHLIGMLKGAMEELVSGDPARLSTDVGPVIDAEAKAGIETYLAANKARILHRSTAPEGGHFVAPALLQVGGIADLEREIFGPVLHLATFAAEDLPAVIAAINARGYGLTFGLHSRIDARVETVAETIRAGNIYVNRNQIGAVVGSQPFGGEGLSGTGPKAGGPLYLNRFYAPEPVVAVGGWTEAATPILPEARETQLDEIFLPGPTGELNRLTRHQRGPILCLGPGAEAASAQAAAVVALGGQAVQASGAVSPKALETLTPLAGVLWWGAAEMGRAYAQALAVRPGPLVPLITAKPDLAHVAHERHLCVDTTAAGGNAALLAG
B1 showed a Km of 94 ± 19 µM and a kcat of 2.0 ± 0.1 s⁻¹.
